Source: patent US20130287807A1, “COMPOUNDS FOR TREATING SYMPTOMS ASSOCIATED WITH PARKINSON'S DISEASE” (priority 2008, published 2013)
Square brackets hold non-standard residues; d marks the D form. Ends that are not written are not given here. pGlu = O=C1CC[C@@H](C(=O)O)N1

Columns and labels:
[1] = system: monoclonal antibody MV-003; assay: In vitro binding assay (ELISA), BSA-coupled peptides, parental antibody MV-003; design: species or system BalbC mice; conditions: Table 1A; peptide-BSA on plate, compared to original epitope
Description: Peptides derived from Phage Display as well as variants thereof were coupled to BSA and bound to ELISA plates (1 μM; as indicated in the respective figures) and subsequently incubated with the monoclonal antibody that was used for the screening procedure to analyse binding capacity of identified peptides.
Legend to Table 1A: the binding capacity is coded by the following binding code: 1:X describes the dilution factor of the parental AB.

[2] = system: monoclonal antibody MV-003; assay: In vitro inhibition assay (ELISA), MV-003 binding to original epitope; design: species or system BalbC mice; conditions: Table 2A; OD at 10 ug peptide compared to original peptide
Description: Different amounts of peptides (concentrations ranging from 10 μg to 0.08 μg; serial dilutions; for MV-002: concentrations ranging from 5 μg to 0.03 μg; serial dilutions), derived from Phage Display were incubated with the monoclonal antibody that was used for the screening procedure. Peptides diminishing subsequent binding of the antibody to the original epitope coated on ELISA plates were considered as inhibiting in this assay.
Legend to Table 2A: the inhibition capacity is coded by the following code: Weak inhibition means more peptide is required to lower AB binding than with the original epitope; strong inhibition means similar peptide amounts are required for mimotope and original epitope for lowering AB binding. Mimotopes are compared to the original peptide as standard. OD at 10 ug peptide used in the assay is used to calculate the competition capacity compared to original peptide.

amyloid plaques = assay: Tg2576 AD mouse model: area occupied by amyloid plaques after mimotope vaccination; format: in vivo, Tg2576 mice; conditions: FIG. 18 Gr2 p4381, Gr3 p4390, Gr4 p4715, FIG. 26 Gr2 p4675, FIG. 19 Gr2 p4395
[3] = system: Aβ/truncated/modified forms; assay: In vivo characterisation of mimotopes: detection of Aβ/truncated/modified forms; design: species or system C57/B16 mice; key: +: All peptides listed in Table 5 mount specific immune reactions against full length and/or truncated and modified forms of Aβ or fragments thereof; conditions: Table 5, MV-003 derived mimotopes
Description: (§1) Inhibiting as well as non-inhibiting peptides were coupled to KLH and injected into mice (wildtype C57/B16 mice; subcutaneous injection into the flank) together with an appropriate adjuvant (aluminium hydroxide). Animals were vaccinated 3-6 times in biweekly intervals and sera were taken biweekly as well. Titers to injected peptides, as well as to an irrelevant peptide were determined with every serum. Furthermore, titers against the recombinant human Aβ protein, and against original peptides were determined respectively. In general sera were analysed by reaction against peptides coupled to Bovine Serum Albumin (BSA) and recombinant full length proteins which were immobilised on ELISA plates. Titers were determined using anti mouse IgG specific antibodies. For detailed results see FIGS. 15, 16 and 17 respectively and FIGS. 23, 24 and 25 respectively.
(§2) Female C57/b16 mice, 5-6 mice per group, were subcutaneously immunized with 30 μg peptide coupled to KLH. Control groups were administered original epitope-KLH conjugates respectively. As adjuvant alum was used (always 1 mg per mouse). […] The in vitro ELISA assay to determine the antibody titer was performed with sera of single mice after each vaccination in a two week interval (see FIGS. 15 and 16 respectively). The wells of the ELISA plate were coated with mimotope-BSA conjugate and an irrelevant peptide-BSA conjugate (negative control). The positive control was performed by reaction of the parental antibody with the respective mimotope-BSA conjugate. The detection was performed with anti-mouse IgG. Additionally, recombinant proteins were immobilised on ELISA plates and sera reacted accordingly. FIGS. 15 to 17 show representative examples for assays used to characterise mimotopes in vivo.
as §2, with “FIGS. 25” for “FIGS. 15”, “and 26” for “and 16”, “respectively). Titers were calculated as OD max/2 in all figures shown.” for “respectively).”, “FIGS. 23, 24 and 25” for “FIGS. 15 to 17”

p4371 = assay: Mimotope vaccination, serum ELISA against p4371; format: in vivo, C57/B16 mice; conditions: peptide-KLH vaccines with alum; FIG. 16
Description: as §1
(§3) Female C57/b16 mice, 5-6 mice per group, were subcutaneously immunized with 30 μg peptide coupled to KLH. Control groups were administered original epitope-KLH conjugates respectively. As adjuvant alum was used (always 1 mg per mouse). […] The in vitro ELISA assay to determine the antibody titer was performed with sera of single mice after each vaccination in a two week interval (see FIGS. 15 and 16 respectively). The wells of the ELISA plate were coated with mimotope-BSA conjugate and an irrelevant peptide-BSA conjugate (negative control). […]

p4373 = assay: Mimotope vaccination, serum ELISA against p4373; format: in vivo, C57/B16 mice; conditions: peptide-KLH vaccines with alum; FIG. 16
Description: as §1, §3

[4] = biological target: monoclonal antibody MV-001; assay: ELISA on peptide-BSA; code 3 = strong binding, OD halfmax 1:>20000
[5] = biological target: monoclonal antibody MV-001; assay: inhibition ELISA, competitor coated original epitope p4371; code 2 = strong inhibition (as original epitope)
[6] = biological target: monoclonal antibody MV-003; assay: ELISA on peptide-BSA; code 3 = strong binding, OD halfmax 1:>60000
[7] = biological target: monoclonal antibody MV-003; assay: inhibition ELISA, competitor coated original epitope p4373; code 2 = strong inhibition (as original epitope)
[8] = biological target: DAEFRH-peptide-specific monoclonal antibody (Example 1); assay: inhibition ELISA, competitor plate-bound DAEFRH-C-BSA
[9] = biological target: DAEFRH-peptide-specific monoclonal antibody (Example 1); assay: inhibition ELISA, competitor plate-bound DAEFRH-C-BSA; inhibitory capacity
[10] = biological target: monoclonal antibody MV-004; assay: ELISA on peptide-BSA; code 3 = strong binding, OD halfmax 1:>96000
[11] = biological target: monoclonal antibody MV-004; assay: inhibition ELISA, competitor coated original epitope p4372; code 2 = strong inhibition (as original epitope)
[12] = biological target: monoclonal antibody MV-004; assay: inhibition ELISA, competitor coated original epitope p4372; code 1 = weaker than original epitope
[13] = biological target: monoclonal antibody MV-003; assay: inhibition ELISA, competitor coated original epitope p4373; code 1 = weaker than original epitope
[14] = biological target: monoclonal antibody MV-003; assay: ELISA on peptide-BSA; code 1 = weak binding, OD halfmax 1:<16000
[15] = biological target: monoclonal antibody MV-004; assay: ELISA on peptide-BSA; code 1 = weak binding, OD halfmax 1:<24000

## IRWDTPC [p4395]
[1]
  Binding Capacity: 2 (medium binding :16-60000)
[2]
  Inhibition Capacity: 1 (Weaker than original epitope (OD of 10 ug peptide below 12 times of original peptide))
Amyloid plaques; Tg2576, 6 s.c. injections monthly, peptide-KLH on ALUM, mAb 3A5 staining, cortex and hippocampus, control group 0.35%
  average occupation (relative area occupied by amyloid deposits in the brain): 0.21%
Amyloid plaques; versus PBS-ALUM control group
  reduction of area occupied by amyloid plaques following mimotope treatment: 38%
[3]
  Detection of Aβ/truncated/modified forms: +

## p(E)FRHDS-C ([pGlu]FRHDSC) [p4373, non-mimotope peptide, pyroglutamate-modified aa3-8 of Aβ]
p4371
  immune response / titers against p4371: mount relevant titers

## EFRHDS-C (EFRHDSC) [p4371]
p4373
  immune response / titers against p4373: mount relevant titers

## IRYDMAGC [p4399]
[1]
  Binding Capacity: 1 (weak binding :<16000)
[3]
  Detection of Aβ/truncated/modified forms: +

## IRYDAPLC [p4397]
[1]
  Binding Capacity: 1 (weak binding :<16000)
[2]
  Inhibition Capacity: 1 (Weaker than original epitope (OD of 10 ug peptide below 12 times of original peptide))
[3]
  Detection of Aβ/truncated/modified forms: +

## VRWDVYPC [p4396]
[1]
  Binding Capacity: 1 (weak binding :<16000)
[3]
  Detection of Aβ/truncated/modified forms: +

## CHEFRH [p4802]
[4]
  OD halfmax 1:X (dilution factor of the parental antibody at half-maximal OD) (dilutionfactor(1:x)): > 20000
[5]
  OD at 10 ug peptide relative to OD of original peptide (inhibition ELISA): < 2 fold

## IRWDTSLC [p4728]
[6]
  dilution factor of the parental antibody at OD halfmax (1:X) (dilutionfactor(1:x)): > 60000
[7]
  OD at 10 ug peptide relative to OD of original peptide (inhibition ELISA): < 5 fold

## HEFRHC [p4803]
[4]
  OD halfmax 1:X (dilution factor of the parental antibody at half-maximal OD) (dilutionfactor(1:x)): > 20000
[5]
  OD at 10 ug peptide relative to OD of original peptide (inhibition ELISA): < 2 fold

## DWELRIC [Peptide 3002]
[8]
  IC50: > 0.5 µg/mL
[9]
  IC50: > 0.5 µg/mL

## ERWHEKHC [p4418]
[10]
  OD halfmax 1:X (dilution factor of the parental antibody at half-maximal OD) (dilutionfactor(1:x)): > 96000
[11]
  OD at 10 ug peptide as multiple of OD with original peptide: < 2 fold

## YAEFRGC [Peptide 3005]
[8]
  IC50: > 0.5 µg/mL
[9]
  IC50: > 0.5 µg/mL

## ELWHRYPC [p4420]
[12]
  OD at 10 ug peptide as multiple of OD with original peptide: 2 to 5 fold

## TEFRHKAC [p4753]
[4]
  OD halfmax 1:X (dilution factor of the parental antibody at half-maximal OD) (dilutionfactor(1:x)): > 20000
[5]
  OD at 10 ug peptide relative to OD of original peptide (inhibition ELISA): < 2 fold

## IRWDQPC [p4756]
[6]
  dilution factor of the parental antibody at OD halfmax (1:X) (dilutionfactor(1:x)): > 60000
[13]
  OD at 10 ug peptide relative to OD of original peptide (inhibition ELISA): 5 to 12 fold

## EVWHRHQC [p4417]
[12]
  OD at 10 ug peptide as multiple of OD with original peptide: 2 to 5 fold

## IRYDAPLC [p4397]
[14]
  dilution factor of the parental antibody at OD halfmax (1:X) (dilutionfactor(1:x)): < 16000
[13]
  OD at 10 ug peptide relative to OD of original peptide (inhibition ELISA): 5 to 12 fold

## EAEFRGC [Peptide 3006]
[8]
  IC50: < 0.5 µg/mL
[9]
  IC50: < 0.5 µg/mL

## DKELRIC [Peptide 3001]
[8]
  IC50: < 0.5 µg/mL
[9]
  IC50: < 0.5 µg/mL

## EVWHRGC [p4788]
[15]
  OD halfmax 1:X (dilution factor of the parental antibody at half-maximal OD) (dilutionfactor(1:x)): < 24000
[12]
  OD at 10 ug peptide as multiple of OD with original peptide: 2 to 5 fold

## IRYDMAGC [p4399]
[14]
  dilution factor of the parental antibody at OD halfmax (1:X) (dilutionfactor(1:x)): < 16000

## CSEFKH [p4800]
[4]
  OD halfmax 1:X (dilution factor of the parental antibody at half-maximal OD) (dilutionfactor(1:x)): > 20000
[5]
  OD at 10 ug peptide relative to OD of original peptide (inhibition ELISA): < 2 fold

## IRWDGC [p4792]
[14]
  dilution factor of the parental antibody at OD halfmax (1:X) (dilutionfactor(1:x)): < 16000
[13]
  OD at 10 ug peptide relative to OD of original peptide (inhibition ELISA): 5 to 12 fold

## TLHEFRHC [p4715]
[4]
  OD halfmax 1:X (dilution factor of the parental antibody at half-maximal OD) (dilutionfactor(1:x)): > 20000
[5]
  OD at 10 ug peptide relative to OD of original peptide (inhibition ELISA): < 2 fold

## ERWHEKC [p4790]
[15]
  OD halfmax 1:X (dilution factor of the parental antibody at half-maximal OD) (dilutionfactor(1:x)): < 24000
[11]
  OD at 10 ug peptide as multiple of OD with original peptide: < 2 fold

## EVWHRHC [p4789]
[15]
  OD halfmax 1:X (dilution factor of the parental antibody at half-maximal OD) (dilutionfactor(1:x)): < 24000
[12]
  OD at 10 ug peptide as multiple of OD with original peptide: 2 to 5 fold

## VRWDVYPC [p4396]
[14]
  dilution factor of the parental antibody at OD halfmax (1:X) (dilutionfactor(1:x)): < 16000

## EVWHRLQC [p4419]
[10]
  OD halfmax 1:X (dilution factor of the parental antibody at half-maximal OD) (dilutionfactor(1:x)): > 96000
[11]
  OD at 10 ug peptide as multiple of OD with original peptide: < 2 fold

## ELWHRAFC [p4665]
[11]
  OD at 10 ug peptide as multiple of OD with original peptide: < 2 fold

## ELWHRAC [p4786]
[15]
  OD halfmax 1:X (dilution factor of the parental antibody at half-maximal OD) (dilutionfactor(1:x)): < 24000
[12]
  OD at 10 ug peptide as multiple of OD with original peptide: 2 to 5 fold
